Reference: patent US20030203372A1, “Analysis method” (priority 2000, published 2003)

Columns and labels:
[1] = tested on: primary human cell cultures (11 cell types); test: Custom gene array, 11 human cell types in normoxia or hypoxia for 6 hr and 18 hr; format: cell-based;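 on mRNA expression level, #1 HY 18 hr: cell type #1 is adipocyte from subcutaneous adult adipose tissue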;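 on mRNA expression level, #1 HY 6 hr: cell type #1 is adipocyte from subcutaneous adult adipose tissue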;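 on mRNA expression level, #1 NO: cell type #1 is adipocyte from subcutaneous adult adipose tissue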;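 on mRNA expression level, #2 HY 18 hr: cell type #2 is fetal cardiomyocyte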;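 on mRNA expression level, #2 HY 6 hr: cell type #2 is fetal cardiomyocyte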;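 on mRNA expression level, #2 NO: cell type #2 is fetal cardiomyocyte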;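 on mRNA expression level, #3 HY 6 hr: cell type #3 is human umbilical vein endothelial cells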;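 on mRNA expression level, #3 NO: cell type #3 is human umbilical vein endothelial cells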;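 on mRNA expression level, #4 HY 18 hr: cell type #4 is adult dermal fibroblast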;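 on mRNA expression level, #4 HY 6 hr: cell type #4 is adult dermal fibroblast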;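 on mRNA expression level, #4 NO: cell type #4 is adult dermal fibroblast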;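 on mRNA expression level, #5 HY 6 hr: cell type #5 is adult hepatocyte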;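 on mRNA expression level, #5 NO: cell type #5 is adult hepatocyte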;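 on mRNA expression level, #6 HY 6 hr: cell type #6 is blood-derived macrophage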;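 on mRNA expression level, #6 NO: cell type #6 is blood-derived macrophage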
Outline: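 Eleven primary, unmodified human cell types (one non-primary neuronal type) held in normoxia or hypoxia for 6 hr and 18 hr. RNA hybridised to duplicate or triplicate custom arrays, normalised per array to reference genes. Expression given relative to each gene's median across all conditions.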

[2] = tested on: human macrophages; test: Custom gene array, macrophages with no cytokines, IL-10 or LPS + IFN, in normoxia and hypoxia; format: cell-based; conditions: for mRNA EXPRESSION (experimental condition) #1: #1 no cytokines/normoxia; for mRNA EXPRESSION (experimental condition) #2: #2 no cytokines/hypoxia; for mRNA EXPRESSION (experimental condition) #3: #3 IL-10/normoxia; for mRNA EXPRESSION (experimental condition) #4: #4 IL-10/hypoxia; for mRNA EXPRESSION (experimental condition) #5: #5 LPS/IFN/normoxia; for mRNA EXPRESSION (experimental condition) #6: #6 LPS/IFN/hypoxia
Description: Macrophages were derived and cultured as described elsewhere in the specification. A total of 6 experimental conditions were analysed, as shown below. Where cells were treated with cytokines or hypoxia (0.1% oxygen), this was for 6 hr. Lipopolysaccharide (LPS) (from E.coli 026:B6; Sigma), gamma Interferon (IFN) and Interleukin-10 (IL-10) were all used at a final concentration of 100 ng/ml. The effect of gamma Interferon and Lipopolysaccharide is to activate macrophages, with a Th1 biased phenotype, as found in many inflammatory conditions. Interleukin-10 is a Th2 cytokine and de-activates macrophages, and suppresses their effector functions.

[3] = Table 16, referenced to median of the gene over 6 conditions
[4] = Table 15, referenced to the median value of that gene throughout all 6 conditions

B1: p1G20 (nucleic acid, listed as Homo Sapiens)
DNA: GAGTAGGAGTGCCTCCTTGTCTGCACTGCTGGTATGGGGTTAGGCCAGGTAGGACATTCCAGAGGGGCTTCTGAAAACCAAGAGTCCCTGGGGAAAGGGAACAGAGTAAGGCAGGCCTTGTTCTCACTGCCCTCTAAGGGAACTTGGTCACTCGGCACTTTTAAGCCTCAGTTTCTCCAGTTCAATAATAAGGACAAGAGCTTTTCCCATGCATTCTCTTTCCCCGGGAAAGTTGACTGAGGTGACCAGTAATAGAATTGAAAAGGGAGAGTGTCTTCAGTGCAATGTGGCATCCTGGATTGGGTCTTGGAACAAAAACAGGACATTAGTGGGAAAATTGGAAATCTGAAAAAAGTCTGAATTTTAGTTAATATACCAATTTCAGTCTCTTGGTTTTGACAGATGTACCATGGTGATGTAAGATGTTGACCTTGGGGTAGGCTGGGTGAAGGGTATACAGGAACTCTTTGTACTATCTCTGCAACTTCTCTGTAAATCTAGTATCATTCCAAAATAAAAGTTTATTTAATTTAAAAAAAAAA
[1]; DOWN, 18 hr cardiomyocyte
  HIGHEST FOLD CHANGE IN HYPOXIA (hr hypoxia + cell type): 4.17 DOWN (18 hr cardiomyocyte) ^ fold
[1]; cell type #1, HY (hypoxia) 6 hr
  mRNA expression level: 0.48
[1]; cell type #1, HY (hypoxia) 18 hr
  mRNA expression level: 0.50
[1]; cell type #1, NO (normoxia)
  mRNA expression level: 0.74
[1]; cell type #2, HY (hypoxia) 6 hr
  mRNA expression level: 0.66
[1]; cell type #2, HY (hypoxia) 18 hr
  mRNA expression level: 0.36
[1]; cell type #2, NO (normoxia)
  mRNA expression level: 1.54
[1]; cell type #3, HY (hypoxia) 6 hr
  mRNA expression level: 1.26
[1]; cell type #3, HY (hypoxia) 18 hr
  mRNA expression level: 1.03
[1]; cell type #3, NO (normoxia)
  mRNA expression level: 1.64
[1]; cell type #4, HY (hypoxia) 6 hr
  mRNA expression level: 0.84
[1]; cell type #4, HY (hypoxia) 18 hr
  mRNA expression level: 0.84
[1]; cell type #4, NO (normoxia)
  mRNA expression level: 0.99
[1]; cell type #5, HY (hypoxia) 6 hr
  mRNA expression level: 1.19
[1]; cell type #5, NO (normoxia)
  mRNA expression level: 1.34
[1]; cell type #6, HY (hypoxia) 6 hr
  mRNA expression level: 0.98
[1]; cell type #6, NO (normoxia)
  mRNA expression level: 1.29
[2]; [3]
  mRNA EXPRESSION (experimental condition) #1: 1.45
  mRNA EXPRESSION (experimental condition) #2: 0.73
  mRNA EXPRESSION (experimental condition) #3: 1.60
  mRNA EXPRESSION (experimental condition) #4: 1.12
  mRNA EXPRESSION (experimental condition) #5: 0.57
  mRNA EXPRESSION (experimental condition) #6: 0.44

B2: p2L23 (nucleic acid, listed as Homo Sapiens)
DNA: GGAGCTGTTTACCCCCACTCTAATAGGGGTTCAATATAAAAAGCCGGCAGAGAGCTGTCCAAGTCAGACGCGCCTCTGCATCTGCGCCAGGCGAACGGGTCCTGCGCCTCCTGCAGTCCCAGCTCTCCACCACCGCCGCGTGCGCCTGCAGACGCTCCGCTCGCTGCCTTCTCTCCTGGCAGGCGCTGCCTTTTCTCCCCGTTAAAGGGCACTTGGGCTGAAGGATCGCTTTGAGATCTGAGGAACCCGCAGCGCTTTGAGGGACCTGAAGCTGTTTTTCTTCGTTTTCCTTTGGGTTCAGTTTGAACGGGAGGTTTTTGATCCCTTTTTTTCAGAATGGATTATTTGCTCATGATTTTCTCTCTGCTGTTTGTGGCTTGCCAAGGAGCTCCAGAAACAGCAGTCTTAGGCGCTGAGCTCAGCGCGGTGGGTGAGAACGGCGGGGAGAAACCCACTCCCAGTCCACCCTGGCGGCTCCGCCGGTCCAAGCGCTGCTCCTGCTCGTCCCTGATGGATAAAGAGTGTGTCTACTTCTGCCACCTGGACATCATTTGGGTCAACACTCCCGAGCACGTTGTTCCGTATGGACTTGGAAGCCCTAGGTCCAAGAGAGCCTTGGAGAATTTACTTCCCACAAAGGCAACAGACCGTGAGAATAGATGCCAATGTGCTAGCCAAAAAGACAAGAAGTGCTGGAATTTTTGCCAAGCAGGAAAAGAACTCAGGGCTGAAGACATTATGGAGAAAGACTGGAATAATCATAAGAAAGGAAAAGACTGTTCCAAGCTTGGGAAAAAGTGTATTTATCAGCAGTTAGTGAGAGGAAGAAAAATCAGAAGAAGTTCAGAGGAACACCTAAGACAAACCAGGTCGGAGACCATGAGAAACAGCGTCAAATCATCTTTTCATGATCCCAAGCTGAAAGGCAAGCCCTCCAGAGAGCGTTATGTGACCCACAACCGAGCACATTGGTGACAGACTTCGGGGCCTGTCTGAAGCCATAGCCTCCACGGAGAGCCCTGTGGCCGACTCTGCACTCTCCACCCTGGCTGGGATCAGAGCAGGAGCATCCTCTGCTGGTTCCTGACTGGCAAAGGACCAGCGTCCTCGTTCAAAACATTCCAAGAAAGGTTAAGGAGTTCCCCCAACCATCTTCACTGGCTTCCATCAGTGGTAACTGCTTTGGTCTCTTCTTTCATCTGGGGATGACAATGGACCTCTCAGCAGAAACACACAGTCACATTCGAATTC
[2]; [4]
  mRNA EXPRESSION (experimental condition) #1: 1.02
  mRNA EXPRESSION (experimental condition) #2: 0.62
  mRNA EXPRESSION (experimental condition) #3: 0.74
  mRNA EXPRESSION (experimental condition) #4: 0.50
  mRNA EXPRESSION (experimental condition) #5: 11.4
  mRNA EXPRESSION (experimental condition) #6: 10.1

B3: p1E7 (nucleic acid, listed as Homo Sapiens)
DNA: GCTTGAGATCTCCAGCCTTACCGCGGCTCGAAATGGCCCCAACTGCTCCTGCACCACTGGTGTCTCCTGCANCTGCACCGGCTCCTGCAAGTGCAAAGAGTGCAAATGACCTCCTGCAAGAAGAGCTGCTGNNCTGCTGCCCCGTGGTGTGCAAGTGTGCCACGGTGTGTCTGCAAAGGGACGTTGGAGAACTGCAGCTGCTGTNCTGATGTGGGAACAAGCTCTTCTCCCAGATGTTAATAGAACAAGCTGCACAACCTGGGATTTTTTTTCAATACGATACTTGAGCCATTTTCTGCATTTCTTTTTATTGTTAAATATGTGAGTGACAATAAAACAATTTTGACTTTGAATCTTAAAAA
modifications: EST array clone; misc_feature 72, 132, 133, 205: n = A,T,C or G
[1]; cell type #1, hypoxia 6 hr
  mRNA expression level, #1 HY 6 hr: 1.29
[1]; cell type #1, hypoxia 18 hr
  mRNA expression level, #1 HY 18 hr: 1.63
[1]; cell type #1, normoxia
  mRNA expression level, #1 NO: 1.20
[1]; cell type #2, hypoxia 6 hr
  mRNA expression level, #2 HY 6 hr: 0.18
[1]; cell type #2, hypoxia 18 hr
  mRNA expression level, #2 HY 18 hr: 0.22
[1]; cell type #2, normoxia
  mRNA expression level, #2 NO: 0.12
[1]; cell type #3, hypoxia 6 hr
  mRNA expression level, #3 HY 6 hr: 1.03
[1]; cell type #3, hypoxia 18 hr
  mRNA expression level, #3 HY 18 hr: 0.71
[1]; cell type #3, normoxia
  mRNA expression level, #3 NO: 1.40
[1]; cell type #4, hypoxia 6 hr
  mRNA expression level, #4 HY 6 hr: 2.17
[1]; cell type #4, hypoxia 18 hr
  mRNA expression level, #4 HY 18 hr: 2.85
[1]; cell type #4, normoxia
  mRNA expression level, #4 NO: 2.36
[1]; cell type #5, hypoxia 6 hr
  mRNA expression level, #5 HY 6 hr: 6.75
[1]; cell type #5, normoxia
  mRNA expression level, #5 NO: 4.89
[1]; cell type #6, hypoxia 6 hr
  mRNA expression level, #6 HY 6 hr: 1.07
[1]; cell type #6, hypoxia 18 hr
  #6 HY 18 hr (mRNA expression level): 0.86
[1]; cell type #6, normoxia
  mRNA expression level, #6 NO: 0.08
[1]; cell type #7, hypoxia 6 hr
  #7 HY 6 hr (mRNA expression level): 2.06
[1]; cell type #7, hypoxia 18 hr
  #7 HY 18 hr (mRNA expression level): 1.32
[1]; cell type #7, normoxia
  #7 NO (mRNA expression level): 0.87
[1]; cell type #8, hypoxia 6 hr
  #8 HY 6 hr (mRNA expression level): 0.75
[1]; cell type #8, hypoxia 18 hr
  #8 HY 18 hr (mRNA expression level): 1.20
[1]; cell type #8, normoxia
  #8 NO (mRNA expression level): 0.03
[1]; cell type #9, hypoxia 6 hr
  #9 HY 6 hr (mRNA expression level): 0.05
[1]; cell type #9, hypoxia 18 hr
  #9 HY 18 hr (mRNA expression level): 0.04
[1]; cell type #9, normoxia
  #9 NO (mRNA expression level): 0.04
[1]; cell type #10, hypoxia 6 hr
  #10 HY 6 hr (mRNA expression level): 2.60
[1]; cell type #10, hypoxia 18 hr
  #10 HY 18 hr (mRNA expression level): 3.60
[1]; cell type #10, normoxia
  #10 NO (mRNA expression level): 3.09
[1]; cell type #11, hypoxia 6 hr
  #11 HY 6 hr (mRNA expression level): 0.70
[1]; cell type #11, hypoxia 18 hr
  #11 HY 18 hr (mRNA expression level): 0.74
[1]; cell type #11, normoxia
  #11 NO (mRNA expression level): 0.60
[1]; hypoxia/normoxia induction ratio, 18 hr monocyte
  HIGHEST FOLD CHANGE IN HYPOXIA (hr hypoxia + cell type): 37.9 (18 hr monocyte) fold
[2]; [4]
  mRNA EXPRESSION (experimental condition) #1: 0.49
  mRNA EXPRESSION (experimental condition) #2: 1.26
  mRNA EXPRESSION (experimental condition) #3: 0.70
  mRNA EXPRESSION (experimental condition) #4: 1.11
  mRNA EXPRESSION (experimental condition) #5: 1.32
  mRNA EXPRESSION (experimental condition) #6: 2.89
